Results published in article PMC11220838, “Factors affecting macromolecule orientations in thin films formed in cryo-EM” (Acta Crystallographica. Section D, Structural Biology, 2024).
“And” between values parts separate entries of the source, which are not always exact repeats. Identical values can stand only once.

What was measured:
[1] = target: SARS-CoV-2 spike protein with C-terminal tag (SARS-CoV-2); assay: cryo-EM structure
[2] = target: the molecule itself; assay: cryo-EM structure; single-particle cryo-EM, plunge-frozen Quantifoil 0.6/1 grids, 25 mM HEPES pH 7.4, 50 mM NaCl; no additive or CTAB; 4 or 20°C; D3 symmetry
[3] = target: T1, Human C-reactive protein (human), P02741; assay: cryo-EM structure; single-particle cryo-EM, plunge-frozen Quantifoil 1.2/1.3 grids, 20 mM Tris pH 8, 280 mM NaCl, 5 mM CaCl2, 0.03% NaN3; no additive or CTAB, SLS, Tween 20, Tween 80, A8-35; 20°C; settings: remark: other sources report otherwise
T1 chain: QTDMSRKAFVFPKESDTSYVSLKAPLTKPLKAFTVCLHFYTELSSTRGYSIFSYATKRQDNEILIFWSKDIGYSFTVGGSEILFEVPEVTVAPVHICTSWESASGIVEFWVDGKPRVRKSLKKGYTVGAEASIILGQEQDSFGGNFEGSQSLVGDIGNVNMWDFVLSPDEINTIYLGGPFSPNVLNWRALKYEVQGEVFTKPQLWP

SARS-CoV-2 spike protein with C-terminal tag (domain or fragment)
stoichiometry N [1]: 3

B1: E. coli PaaZ (enzyme)
chain: QQLASFLSGTWQSGRGRSRLIHHAISGEALWEVTSEGLDMAAARQFAIEKGAPALRAMTFIERAAMLKAVAKHLLSEKERFYALSAQTGATRADSWVDIEGGIGTLFTYASLGSRELPDDTLWPEDELIPLSKEGGFAARHLLTSKSGVAVHINAFNFPCWGMLEKLAPTWLGGMPAIIKPATATAQLTQAMVKSIVDSGLVPEGAISLICGSAGDLLDHLDSQDVVTFTGSAATGQMLRVQPNIVAKSIPFTMEADSLNCCVLGEDVTPDQPEFALFIREVVREMTTKAGQKCTAIRRIIVPQALVNAVSDALVARLQKVVVGDPAQEGVKMGALVNAEQRADVQEKVNILLAAGCEIRLGGQADLSAAGAFFPPTLLYCPQPDETPAVHATEAFGPVATLMPAQNQRHALQLACAGGGSLAGTLVTADPQIARQFIADAARTHGRIQILNEESAKESTGHGSPLPQLVHGGPGRAGGGEELGGLRAVKHYMQRTAVQGSPTMLAAISKQWVRGAKVEEDRIHPFRKYFEELQPGDSLLTPRRTMTEADIVNFACLSGDHFYAHMDKIAAAESIFGERVVHGYFVLSAAAGLFVDAGVGPVIANYGLESLRFIEPVKPGDTIQVRLTCKRKTLKKQRSAEEKPTGVVEWAVEVFNQHQTPVALYSILTLVARQHGDFVD
notes: source: recombinantly overexpressed, purified as described in Sathyanarayanan et al. (2019)
stoichiometry N [2]: 6

B2: Human C-reactive protein, P02741 19-224 (natural protein)
chain: QTDMSRKAFVFPKESDTSYVSLKAPLTKPLKAFTVCLHFYTELSSTRGYSIFSYATKRQDNEILIFWSKDIGYSFTVGGSEILFEVPEVTVAPVHICTSWESASGIVEFWVDGKPRVRKSLKKGYTVGAEASIILGQEQDSFGGNFEGSQSLVGDIGNVNMWDFVLSPDEINTIYLGGPFSPNVLNWRALKYEVQGEVFTKPQLWP
stoichiometry N [3]: 5 and 10
